In the data set the test system is Escherichia coli TOP10. The data set is described as follows: shrunken log2 fold change of peptide-encoding DNA abundance (4.5 h post-induction vs induction); higher = less antimicrobial activity (less host growth inhibition). The following applies: time post-induction: 4.5 h; library: site-saturation at positions 5, 18, 19, 20.

We go through 50 sequences from the supplement of paper PMC9112550, “Optimization of the antimicrobial peptide Bac7 by deep mutational scanning” (BMC Biology, 2022).
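Further: peptides expressed intracellularly from a pBAD plasmid library in pooled LB shake-flask culture, induced with 0.3% L-arabinose, DNA abundance read by NGS, three biological replicates, DESeq2 with apeglm shrinkage.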

With RRIRWRPPRLPRPRPRPMTEPRP, the “shrunken log2 fold change” value was determined as 0.804.
For RRIRWRPPRLPRPRPRPIWFPRP, the “shrunken log2 fold change” value came out at 1.96.
As for RRIRHRPPRLPRPRPRPDMEPRP, the figure is -0.336; as for RRIRMRPPRLPRPRPRPEKHPRP, 0.921.
Next, RRIRGRPPRLPRPRPRPYPGPRP: -0.0165; RRIRYRPPRLPRPRPRPGNLPRP: 0.0185.
Next, RRIRARPPRLPRPRPRPQNEPRP: -0.12; RRIRVRPPRLPRPRPRPNPQPRP: 0.000771; RRIRRRPPRLPRPRPRPVDNPRP: 0.0838.
On to RRIRMRPPRLPRPRPRPKNCPRP, for which the “shrunken log2 fold change” value worked out at 0.0597.
Take RRIRIRPPRLPRPRPRPVVRPRP: the “shrunken log2 fold change” value was found to be 0.11.
Turning to RRIRYRPPRLPRPRPRPKYRPRP, the “shrunken log2 fold change” value is -0.0133.
RRIRDRPPRLPRPRPRPDQFPRP: the “shrunken log2 fold change” value was -0.00947.
As for RRIRDRPPRLPRPRPRPVAPPRP, the figure is 0.445; as for RRIRGRPPRLPRPRPRPIRIPRP, 0.217; as for RRIRTRPPRLPRPRPRPNWRPRP, 0.176.
For the sequence RRIRDRPPRLPRPRPRPSIAPRP, the “shrunken log2 fold change” value came out at 0.146.
As for RRIRPRPPRLPRPRPRPKNVPRP, the figure is -0.169.
For RRIRSRPPRLPRPRPRPWIVPRP, the “shrunken log2 fold change” value was -0.127.
RRIRFRPPRLPRPRPRPICSPRP: the “shrunken log2 fold change” value was -0.0437.
Next, RRIRNRPPRLPRPRPRPGWTPRP: 0.0174; RRIRHRPPRLPRPRPRPTVFPRP: -0.251; RRIRQRPPRLPRPRPRPVQRPRP: 0.862.
As for RRIRERPPRLPRPRPRPYRLPRP, the figure is -0.102; as for RRIRLRPPRLPRPRPRPAAGPRP, 0.312; as for RRIRFRPPRLPRPRPRPFGRPRP, -0.199.
For the sequence RRIRARPPRLPRPRPRPPNPPRP, the “shrunken log2 fold change” value was 0.662.
Next, RRIRHRPPRLPRPRPRPQFCPRP: -0.208; RRIRTRPPRLPRPRPRPWCRPRP: -0.263; RRIRGRPPRLPRPRPRPVKPPRP: 0.268.
With RRIRRRPPRLPRPRPRPMFHPRP, the “shrunken log2 fold change” value was -0.395.
Next, RRIRKRPPRLPRPRPRPIIGPRP: 0.00654.
Next, RRIRYRPPRLPRPRPRPEALPRP: -0.23.
RRIRTRPPRLPRPRPRPRSYPRP: the “shrunken log2 fold change” value stood at 0.0838.
Next, RRIRDRPPRLPRPRPRPTHTPRP: -0.311; RRIRCRPPRLPRPRPRPWLGPRP: 0.188; RRIRPRPPRLPRPRPRPEATPRP: 0.33.
As for RRIRTRPPRLPRPRPRPWCQPRP, the figure is -0.134; as for RRIRRRPPRLPRPRPRPRVLPRP, 0.349.
Next, RRIRCRPPRLPRPRPRPMRAPRP: 0.919; RRIRLRPPRLPRPRPRPVHKPRP: -0.256; RRIRVRPPRLPRPRPRPWREPRP: 0.0932.
Consider RRIRARPPRLPRPRPRPTEQPRP, for which the “shrunken log2 fold change” value came to 0.184.
Turning to RRIRHRPPRLPRPRPRPELNPRP, the “shrunken log2 fold change” value is -0.098.
As for RRIRCRPPRLPRPRPRPPTHPRP, the figure is 0.172; as for RRIRPRPPRLPRPRPRPVFPPRP, 0.181; as for RRIRYRPPRLPRPRPRPHQTPRP, 0.0583.
Regarding RRIRKRPPRLPRPRPRPMNMPRP, the “shrunken log2 fold change” value was -0.0791.
On to RRIRPRPPRLPRPRPRPAAAPRP, for which the “shrunken log2 fold change” value stood at 0.56.
As to RRIRGRPPRLPRPRPRPSHRPRP, the “shrunken log2 fold change” value is -0.0458.
